Source: US7074761B1, “Peptides and production and use thereof” (Takeda Chemical Ind., Ltd., priority 1996, dated 2006)
Where a SMILES comes first, the peptide text is derived from it. Bridges are numbered along the chain shown (N, C = ends). Where no end group is shown, it is not given here.

Assays:
[1] = target: T1, human SSTR4 (Homo sapiens, UniProt P31391); experiment: [125I]-somatostatin binding inhibition, SSTR4 CHO cell membrane fraction; conditions: 25° C., 60 minutes
T1 construct: expressed in transfected cells; host or cells: CHO(dhfr-) cells, clone SSTR4-1-2, plasmid pA-1-11-SSTR4 (vector pAKKO-111)
Method: CHO(dhfr^−) cells (1×10^6 cells) were cultured on HAM F12 medium containing 10% fetal bovine serum in a dish with a diameter of 8 cm for 24 hours. Into these cells was introduced 10 μg of the human SSTR4 DNA expression plasmid pA-1-11-SSTR4 obtained as described above in (2) by the calcium phosphate method (Cell Phect Transfection Kit; Pharmacia). At 24 hours after transfection, the medium was exchanged for DMEM containing 10% dialyzed fetal bovine serum, and cells forming a colony on this medium (namely DHFR^+ cells) were selected. Further, the cells selected were treated by the limiting dilution method for cloning from a single cell, and the cells thus cloned were measured for their somatostatin receptor protein expression ability by the binding assay described in Reference Example 1 (3). In this manner, a cell line with high somatostatin-binding activity, SSTR4-1-2, was selected.
The human somatostatin receptor expressing CHO cell lines SSTR1-8-3, SSTR2-HS5-9, SSTR3-15-19, SSTR4-1-2 and SSTR5-32-4 (10^9 cells each) were respectively suspended in phosphate buffered physiological saline supplemented with 5 mM EDTA (PBS-EDTA) and centrifuged. To each cell pellet was added 10 ml of cell homogenation buffer (10 mM NaHCO3, 5 mM EDTA, pH=7.5), followed by homogenation with a Polytron homogenizer. The homogenate was centrifuged at 400×g for 15 minutes, and the supernatant obtained was further centrifuged at 100,000×g for 1 hour to give a membrane fraction as a precipitate. […]
(§1) The membrane fractions prepared in Reference Example 6 were each diluted to 3 μg/ml with assay buffer. […] After filtration, the radioactivity of [^125I]-somatostatin remaining on the filter paper was measured. For each test substance, the binding inhibition percentage (%) was calculated according to the formula: PBM=(B−NSB)/(B0−NSB)×100 (where PBM: percent maximum binding; B: radioactivity when the test sample is added; B0: maximum bound radioactivity; NSB: non-specifically bound radioactivity). […]

[2] = target: T2, human SSTR5 (Homo sapiens, UniProt P35346); experiment: [125I]-somatostatin binding inhibition, SSTR5 CHO cell membrane fraction; conditions: 25° C., 60 minutes
T2 construct: expressed in transfected cells; host or cells: CHO(dhfr-) cells, clone SSTR5-32-4, plasmid pA-1-11-SSTR5 (vector pAKKO-111)
Method: CHO(dhfr^−) cells (1×10^6 cells) were cultured on HAM F12 medium containing 10% fetal bovine serum in a dish with a diameter of 8 cm for 24 hours. Into these cells was introduced 10 μg of the human SSTR5 cDNA expression plasmid pA-1-11-SSTR5 obtained as described above in (2) by the calcium phosphate method (Cell Phect Transfection Kit; Pharmacia). At 24 hours after transfection, the medium was exchanged for DMEM containing 10% dialyzed fetal bovine serum, and cells forming a colony on this medium (namely DHFR^+ cells) were selected. Further, the cells selected were treated by the limiting dilution method for cloning from a single cell, and the cells thus cloned were measured for their somatostatin receptor protein expression ability by the binding assay described in Reference Example 1 (3). In this manner, a cell line with high somatostatin-binding activity. SSTR5-32-4, was selected. […]
as §1

[3] = target: T3, human somatostatin receptor protein subtype 3 (SSTR3) (human, UniProt P32745 1-418); experiment: displacement of 200 pM [125I]-somatostatin from membrane fraction of CHO cells expressing the human receptor; filter binding, Hill plot
T3 construct: whole, on cells; also called cell line SSTR3-15-19
Method: (§2) The membrane fractions prepared in Reference Example 6 were each diluted to 3 µg/ml with assay buffer. […] After 60 minutes of reaction at 25° C., each reaction mixture was suction-filtered using a polyethyleneimine-treated Whatman glass filter (GF-B). […] For each test substance, the binding inhibition percentage (%) was calculated according to the formula:
(§3) PBM=(B-NSB)/(B_0-NSB)×100 (where PBM: percent maximum binding; B: radioactivity when the test sample is added; B_0: maximum bound radioactivity; NSB: non-specifically bound radioactivity).

[4] = target: T4, human somatostatin receptor protein subtype 2 (SSTR2) (human, UniProt P30874 1-369); experiment: as above
T4 construct: whole, on cells; also called cell line SSTR2-HS5-9
Method: as §2, §3

[5] = target: T5, human somatostatin receptor protein subtype 1 (SSTR1) (human, UniProt P30872 1-391); experiment: as above
T5 construct: whole, on cells; also called cell line SSTR1-8-3
Method: as §2, §3

[6] = target: T6, human somatostatin receptor protein subtype 5 (SSTR5) (human, UniProt P35346 1-364); experiment: as above
T6 construct: whole, on cells; also called cell line SSTR5-32-4
Method: as §2, §3

[7] = target: T3, human somatostatin receptor protein …; experiment: cell-based or functional assay
[8] = target: T6, human somatostatin receptor protein …; experiment: cell-based or functional assay
[9] = target: T4, human somatostatin receptor protein …; experiment: cell-based or functional assay
[10] = target: human somatostatin receptor protein subtype 4 (SSTR4) (human, UniProt P31391 1-388); experiment: cell-based or functional assay
Sequence of human somatostatin receptor protein subtype 4 (SSTR4) (P31391 whole entry): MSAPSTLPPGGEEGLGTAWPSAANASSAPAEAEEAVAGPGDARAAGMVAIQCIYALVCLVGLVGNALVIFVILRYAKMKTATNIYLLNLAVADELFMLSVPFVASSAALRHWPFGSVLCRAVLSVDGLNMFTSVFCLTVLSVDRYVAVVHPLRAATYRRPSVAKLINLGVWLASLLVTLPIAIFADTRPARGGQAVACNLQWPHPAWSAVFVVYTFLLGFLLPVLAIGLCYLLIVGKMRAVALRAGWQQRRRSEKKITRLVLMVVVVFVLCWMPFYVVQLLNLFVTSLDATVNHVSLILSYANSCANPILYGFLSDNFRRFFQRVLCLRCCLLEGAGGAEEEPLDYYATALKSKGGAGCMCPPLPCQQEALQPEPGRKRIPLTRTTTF

T3 sequence (P32745 whole entry): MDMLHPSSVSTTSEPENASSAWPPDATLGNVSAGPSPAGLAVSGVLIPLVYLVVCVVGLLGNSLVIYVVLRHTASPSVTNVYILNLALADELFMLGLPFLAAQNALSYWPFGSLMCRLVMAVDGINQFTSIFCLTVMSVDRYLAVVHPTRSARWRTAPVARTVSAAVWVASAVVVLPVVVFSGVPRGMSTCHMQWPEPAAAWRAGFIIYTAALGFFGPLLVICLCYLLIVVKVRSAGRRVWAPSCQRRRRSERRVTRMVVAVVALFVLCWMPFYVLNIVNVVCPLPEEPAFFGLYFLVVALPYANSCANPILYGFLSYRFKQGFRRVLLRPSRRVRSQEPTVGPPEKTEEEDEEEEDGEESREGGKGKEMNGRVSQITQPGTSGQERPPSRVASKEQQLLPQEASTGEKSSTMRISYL
T6 sequence (P35346 whole entry): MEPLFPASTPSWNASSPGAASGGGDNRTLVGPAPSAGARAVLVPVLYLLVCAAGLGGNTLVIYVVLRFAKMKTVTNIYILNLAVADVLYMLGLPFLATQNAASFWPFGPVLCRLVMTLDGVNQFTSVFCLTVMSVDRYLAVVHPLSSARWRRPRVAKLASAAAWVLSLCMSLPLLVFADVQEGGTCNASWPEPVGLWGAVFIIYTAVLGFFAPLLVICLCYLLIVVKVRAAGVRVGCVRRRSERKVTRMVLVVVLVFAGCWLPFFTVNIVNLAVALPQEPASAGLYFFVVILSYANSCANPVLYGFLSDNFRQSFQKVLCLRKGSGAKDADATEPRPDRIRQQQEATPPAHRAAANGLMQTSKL
T4 sequence (P30874 whole entry): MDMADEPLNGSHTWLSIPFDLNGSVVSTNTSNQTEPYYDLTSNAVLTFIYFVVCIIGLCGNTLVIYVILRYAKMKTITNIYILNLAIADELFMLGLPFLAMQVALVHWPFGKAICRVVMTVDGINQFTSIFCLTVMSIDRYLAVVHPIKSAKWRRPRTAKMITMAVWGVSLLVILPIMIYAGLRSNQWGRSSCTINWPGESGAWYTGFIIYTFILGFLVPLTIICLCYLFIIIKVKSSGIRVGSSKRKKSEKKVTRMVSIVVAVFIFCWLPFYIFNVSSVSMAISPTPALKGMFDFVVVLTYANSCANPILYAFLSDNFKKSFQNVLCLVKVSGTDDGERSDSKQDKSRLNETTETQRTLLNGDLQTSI
T1 sequence (P31391 whole entry): as the sequence (P31391 whole entry) above
T2 sequence (P35346 whole entry): as the sequence (P35346 whole entry) above
T5 sequence (P30872 whole entry): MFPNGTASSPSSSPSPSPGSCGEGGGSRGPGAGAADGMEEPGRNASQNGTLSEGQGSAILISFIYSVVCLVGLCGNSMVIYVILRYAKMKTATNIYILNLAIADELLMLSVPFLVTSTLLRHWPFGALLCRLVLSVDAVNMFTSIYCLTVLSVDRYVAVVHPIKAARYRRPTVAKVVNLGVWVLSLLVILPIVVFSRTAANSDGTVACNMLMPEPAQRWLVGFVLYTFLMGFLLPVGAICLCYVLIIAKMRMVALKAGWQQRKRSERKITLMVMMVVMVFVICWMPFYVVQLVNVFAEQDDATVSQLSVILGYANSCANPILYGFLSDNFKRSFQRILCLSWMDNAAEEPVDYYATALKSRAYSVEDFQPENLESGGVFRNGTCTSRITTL

| IC50 [1] | IC50 [2] | IC50 [3] | IC50 [4] | IC50 [5] | IC50 [6] | ED50 of inhibition of forskolin-stimulated intracellular cAMP accumulation [7] | ED50 of inhibition of forskolin-stimulated intracellular cAMP accumulation [8] | ED50 of inhibition of forskolin-stimulated intracellular cAMP accumulation [9] | ED50 of inhibition of forskolin-stimulated intracellular cAMP accumulation [10] | Molecule |
| --- | --- | --- | --- | --- | --- | --- | --- | --- | --- | --- |
| 0.5 nM | 0.5 nM | – | – | – | – | – | – | – | – | C[C@@H](O)[C@@H]1NC(=O)[C@H](CCCCN)NC(=O)[C@H](Cc2c[nH]c3ccccc23)NC(=O)[C@H](Cc2ccccc2)NC(=O)[C@H](Cc2ccccc2)NC(=O)[C@H](CC(N)=O)NC(=O)[C@H](CCCNC(=N)N)NC(=O)[C@@H](N)CSSC[C@@H](C(=O)N[C@@H](CCCCN)C(=O)O)NC(=O)[C@H](CO)NC(=O)[C@H](CO)NC(=O)[C@H](Cc2ccccc2)NC1=O [hCS-13] (H-CRNFFWKTFSSCK-OH; disulfide 1-12; N-terminus and C-terminus assumed) |
| – | – | 0.7 nM | 0.3 nM | 6 nM | – | – | – | – | – | CRNFFWKTFSSCK (disulfide 1-12) [deletion type human peptide hCS-13] |
| – | – | 0.6 nM | 0.6 nM | – | 0.4 nM | 1 nM | 0.2 nM | 5 nM | 0.1 nM | DRMPCRNFFWKTFSSCK (disulfide 5-16) [human peptide hCS-17] |
| – | – | 0.9 nM | 0.8 nM | – | – | 1 nM | 0.2 nM | 7 nM | 0.2 nM | MPCRNFFWKTFSSCK (disulfide 3-14) [deletion type human peptide hCS-15] |
